Measurements: paper PMC6954210

Experiments:
[1] = IP, p-Ser Western blot, IBMX/Fsk-treated HeLa; conditions: glycan gained; control: no OGT overexpression
[2] = IP, p517 Western blot, IBMX/Fsk stimulation; conditions: glycan gained; control: no OGT overexpression
[3] = p517 Western blot, fat of 6 h fasted mice; conditions: glycan lost; control: WT mice
[4] = Western blot of PLIN1 in iWAT; conditions: glycan lost; control: WT mice
[5] = IP of endogenous PLIN1, p517 Western blot; conditions: glycan gained; control: WT mice
[6] = p492/p517 immunofluorescence, IBMX/Fsk-treated primary eWAT adipocytes; conditions: glycan lost; control: WT adipocytes

B1: perilipin 1 (PLIN1): OGT overexpression (protein)
parent chain: MSMNKGPTLLDGDLPEQENVLQRVLQLPVVSGTCECFQKTYNSTKEAHPLVASVCNAYEKGVQGASNLAAWSMEPVVRRLSTQFTAANELACRGLDHLEEKIPALQYPPEKIASELKGTISTRLRSARNSISVPIASTSDKVLGATLAGCELALGMAKETAEYAANTRVGRLASGGADLALGSIEKVVEFLLPPDKESAPSSGRQRTQKAPKAKPSLVRRVSTLANTLSRHTMQTTAWALKQGHSLAMWIPGVAPLSSLAQWGASAAMQVVSRRQSEVRVPWLHNLAASQDESHDDQTDTEGEETDDEEEEEESEAEENVLREVTALPNPRGLLGGVVHTVQNTLRNTISAVTWAPAAVLGTVGRILHLTPAQAVSSTKGRAMSLSDALKGVTDNVVDTVVHYVPLPRLSLMEPESEFRDIDNPSAEAERKGSGARPASPESTPRPGQPRGSLRSVRGLSAPSCPGLDDKTEASARPGFLAMPREKPARRVSDSFFRPSVMEPILGRAQYSQLRKKS
For B1, the “other: PLIN1 phosphorylation” value [1] was “decreases” and the “other: PLIN1 phosphorylation” value [2] was “abolishes”.

B2: perilipin 1 (PLIN1): OGT AKO (iWAT) (protein)
parent chain: B1 parent chain
With B2 the “other: PLIN1 phosphorylation” value [3] was “no change”.

B3: perilipin 1 (PLIN1): OGT AKO (eWAT) (protein)
parent chain: B1 parent chain
With B3 the “other: PLIN1 phosphorylation” value [3] was “increases”.

B4: perilipin 1 (PLIN1): OGT AKO (protein)
parent chain: B1 parent chain
With B4 the expression_or_secretion [4] was “no change”.

B5: perilipin 1 (PLIN1): OGT AKI (adipose rOGT knockin) (protein)
parent chain: B1 parent chain
With B5 the “other: PLIN1 phosphorylation” value [5] was “decreases”.

B6: perilipin 1 (PLIN1): OGT knockout (protein)
parent chain: B1 parent chain
In the case of B6, the “other: PLIN1 phosphorylation” value [6] is reported as “increases”.
